Here are results for one molecule from publication PMC7097781 (Nature Structural & Molecular Biology, 2013).

This experiment concerns the target T1, human MacroD2 macrodomain (aa 7–243), wild type (human, UniProt A1Z1Q3 7-243).
T1 sequence (looked up): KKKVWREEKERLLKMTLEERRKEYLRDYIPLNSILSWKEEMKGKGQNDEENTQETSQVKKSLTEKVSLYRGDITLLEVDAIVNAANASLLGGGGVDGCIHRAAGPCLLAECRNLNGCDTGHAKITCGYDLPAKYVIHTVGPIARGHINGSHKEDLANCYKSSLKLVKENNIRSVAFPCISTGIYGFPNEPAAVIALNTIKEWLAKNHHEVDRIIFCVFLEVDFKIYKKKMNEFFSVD
The experiment in a line: pull-down.

B1: GST-PARP10 catalytic domain (aa 818–1025), ADP-ribosylated (domain or fragment, UniProt Q53GL7 818-1025, looked up)
chain: NNLERLAENTGEFQEVVRAFYDTLDAARSSIRVVRVERVSHPLLQQQYELYRERLLQRCERRPVEQVLYHGTTAPAVPDICAHGFNRSFCGRNATVYGKGVYFARRASLSVQDRYSPPNADGHKAVFVARVLTGDYGQGRRGLRAPPLRGPGHVLLRYDSAVDCICQPSIFVIFHDTQALPTHLITCEHVPRASPDDPSGLPGRSPDT
modifications: mono-ADP-ribosylated (automodified; single ADPr units on glutamate residues); sites not stated
Turning to B1, the binding result is recorded as “binds”.
